Experimental data as given in patent US20220017612A1 (TILOS THERAPEUTICS, published 2022).

How the values were obtained:
LAP-TGFβ1 on U937 cells [1] = target: T1, LAP-TGFβ1 on U937 cells (Homo sapiens, UniProt P01137); test: flow cytometry, U937 cells, Alexa 647 antibody, % LAP+ cells
T1 construct: cell surface, endogenous; also called LAP+ U937 cells
Experimental: (§1) Anti-LAP antibodies were tested for their ability to bind to U937 cells, a myeloid cell line derived from a patient with histiocytic lymphoma. U937 cells were incubated with FACS buffer and human Fc block followed by incubation with varying concentrations of Alexa 647 conjugated 28G11_hyb, 22F9_mIgG2a, or 20E6_mIgG2a. In a separate experiment U937 cells were incubated with FACS buffer and human Fc block followed by incubation with 10 ug/ml of Alexa 647 conjugated 28G11_hyb, 22F9_mIgG2a, 20E6_mIgG2a or mIgG2a isotype control (FIGS. 10E and 10F). Representative dot plots are shown in FIG. 10G; in these plots, antibodies were at 10 ug/ml.

[2] = target: human-chicken LAP-TGFβ1 chimera #1.3 on HT1080 cells (human/chicken chimera, UniProt P01137 30-390); test: flow cytometry, transduced HT1080 cells
Experimental: (§2) These constructs were subcloned into lentivirus and transduced into HT1080 cells. Successful gene integration was confirmed by expression of a green fluorescent protein (GFP) reporter gene. LAP-TGFβ1 expression was evaluated by flow cytometry using a rabbit monoclonal antibody (Rmab) raised against a peptide from the mature cytokine (residues 250-361) domain (Abeam cat #ab179695), 28G11_(hyb) and 2C9_(hyb). Briefly, 4×10⁵ each of (a) HT1080 cells, (b) HT1080 cells overexpressing human LAP-TGFβ1, (c) HT1080 cells overexpressing chicken LAP-TGFβ1, and (d) HT1080 cells overexpressing human/chicken chimeras #1-#7 were cultured in 96-well plates. The plates were centrifuged for 5 min at 1,500 rpm, liquid was removed, and cells were resuspended with 200 μL FACS buffer. The plates were centrifuged again, diluted primary antibody was added to each well, and the plates were incubated on ice for 20 minutes, followed by centrifugation. The cells were resuspended in 200 μL FACS buffer, centrifuged again, and resuspended in 50 μL diluted secondary antibody (APC-anti-Mouse IgG). The plates were incubated on ice for 20 minutes in the dark, washed twice with 200 μL FACS buffer, and cells from each well (in 200 μL FACS buffer) were read on the Attune NXT instrument. The antibodies were considered to be binding if >10% of cells were GFP+/APC+ and there was visible correlation between the GFP and allophycocyanin (APC) signals (Table 5).

[3] = target: human-chicken LAP-TGFβ1 chimera #1.2 on HT1080 cells (human/chicken chimera, UniProt P01137 30-390); test: flow cytometry, transduced HT1080 cells
Experimental: as §2

[4] = target: T2, chicken LAP-TGFβ1 on HT1080 cells (chicken, UniProt P09531 19-391); test: flow cytometry, transduced HT1080 cells
T2 construct: also called chB1
T2 sequence: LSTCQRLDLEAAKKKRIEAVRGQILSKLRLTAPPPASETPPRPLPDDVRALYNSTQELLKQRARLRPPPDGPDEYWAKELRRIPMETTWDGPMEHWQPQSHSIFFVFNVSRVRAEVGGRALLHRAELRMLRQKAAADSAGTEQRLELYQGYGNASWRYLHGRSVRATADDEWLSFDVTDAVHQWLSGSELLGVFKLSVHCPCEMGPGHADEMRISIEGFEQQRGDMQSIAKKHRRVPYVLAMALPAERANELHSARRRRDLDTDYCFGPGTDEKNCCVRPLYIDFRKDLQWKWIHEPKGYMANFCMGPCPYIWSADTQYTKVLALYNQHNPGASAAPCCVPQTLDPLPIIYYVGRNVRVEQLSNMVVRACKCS
Experimental: as §2

[5] = target: human-chicken LAP-TGFβ1 chimera #6 on HT1080 cells (human/chicken chimera, UniProt P01137 30-390); test: flow cytometry, transduced HT1080 cells
Experimental: as §2

[6] = target: human-chicken LAP-TGFβ1 chimera #5 on HT1080 cells (human/chicken chimera); test: flow cytometry, transduced HT1080 cells
Experimental: as §2

[7] = target: T3, human LAP-TGFβ1 overexpressed on cells (human, UniProt P01137 30-390); test: flow cytometry, transduced HT1080 cells
T3 construct: HT1080 or P3U1 cells overexpressing wild-type human LAP-TGFβ1; also called HT1080-huB1; HT1080-hβ1
Experimental: as §2

[8] = target: human-chicken LAP-TGFβ1 chimera #7 on HT1080 cells (human/chicken chimera, UniProt P01137 30-390); test: flow cytometry, transduced HT1080 cells
Experimental: as §2

[9] = target: T4, human-chicken LAP-TGFβ1 chimera #4 on HT1080 cells (human/chicken chimera, UniProt P01137 30-390); test: flow cytometry, transduced HT1080 cells
T4 construct: also called HT1080-ch4
Experimental: as §2

[10] = target: T5, human-chicken LAP-TGFβ1 chimera #2.3 on HT1080 cells (human/chicken chimera, UniProt P01137 30-390); test: flow cytometry, transduced HT1080 cells
T5 construct: also called HT1080-ch2.3
Experimental: as §2

[11] = target: T6, human-chicken LAP-TGFβ1 chimera #2.2 on HT1080 cells (human/chicken chimera, UniProt P01137 30-390); test: flow cytometry, transduced HT1080 cells
T6 construct: also called HT1080-ch2.2
Experimental: as §2

[12] = target: T7, human-chicken LAP-TGFβ1 chimera #2.1 on HT1080 cells (human/chicken chimera, UniProt P01137 30-390); test: flow cytometry, transduced HT1080 cells
Experimental: as §2

[13] = target: human-chicken LAP-TGFβ1 chimera #3 on HT1080 cells (human/chicken chimera, UniProt P01137 30-390); test: flow cytometry, transduced HT1080 cells
Experimental: as §2

LAP-TGFβ1 on U937 cells [14] = target: T1, LAP-TGFβ1 on U937 cells; test: flow cytometry dot plot against GARP, U937 cells, Alexa 647 antibody at 10 ug/ml
Experimental: as §1

[15] = target: T2, chicken LAP-TGFβ1 on HT1080 cells; test: flow cytometry, HT1080 cells
Experimental: as §2

[16] = target: T6, human-chicken LAP-TGFβ1 chimera #2.2 on …; test: flow cytometry, HT1080 cells
Experimental: as §2

[17] = target: T7, human-chicken LAP-TGFβ1 chimera #2.1 on …; test: flow cytometry, HT1080 cells
Experimental: as §2

T1 sequence (P01137 30-390 limits assumed): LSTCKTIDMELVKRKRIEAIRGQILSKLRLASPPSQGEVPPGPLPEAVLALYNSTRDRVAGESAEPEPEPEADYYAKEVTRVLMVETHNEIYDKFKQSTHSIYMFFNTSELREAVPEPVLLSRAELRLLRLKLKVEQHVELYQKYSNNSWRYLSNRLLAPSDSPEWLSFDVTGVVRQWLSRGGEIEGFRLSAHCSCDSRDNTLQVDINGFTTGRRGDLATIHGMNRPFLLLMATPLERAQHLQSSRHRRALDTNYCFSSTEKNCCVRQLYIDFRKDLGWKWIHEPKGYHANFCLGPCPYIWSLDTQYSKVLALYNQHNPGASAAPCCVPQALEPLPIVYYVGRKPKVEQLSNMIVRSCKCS
T6 sequence (P01137 other isoform, or with tags, fused parts or gaps mutant): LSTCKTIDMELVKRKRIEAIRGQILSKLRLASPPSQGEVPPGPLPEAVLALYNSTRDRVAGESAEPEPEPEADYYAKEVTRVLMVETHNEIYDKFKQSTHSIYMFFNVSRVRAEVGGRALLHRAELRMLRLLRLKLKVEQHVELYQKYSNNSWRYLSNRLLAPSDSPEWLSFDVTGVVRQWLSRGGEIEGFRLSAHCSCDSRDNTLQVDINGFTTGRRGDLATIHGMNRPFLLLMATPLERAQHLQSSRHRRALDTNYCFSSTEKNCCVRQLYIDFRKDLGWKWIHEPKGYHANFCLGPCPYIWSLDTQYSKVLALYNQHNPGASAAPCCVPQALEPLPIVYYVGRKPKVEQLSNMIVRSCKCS
T7 sequence (P01137 other isoform, or with tags, fused parts or gaps mutant): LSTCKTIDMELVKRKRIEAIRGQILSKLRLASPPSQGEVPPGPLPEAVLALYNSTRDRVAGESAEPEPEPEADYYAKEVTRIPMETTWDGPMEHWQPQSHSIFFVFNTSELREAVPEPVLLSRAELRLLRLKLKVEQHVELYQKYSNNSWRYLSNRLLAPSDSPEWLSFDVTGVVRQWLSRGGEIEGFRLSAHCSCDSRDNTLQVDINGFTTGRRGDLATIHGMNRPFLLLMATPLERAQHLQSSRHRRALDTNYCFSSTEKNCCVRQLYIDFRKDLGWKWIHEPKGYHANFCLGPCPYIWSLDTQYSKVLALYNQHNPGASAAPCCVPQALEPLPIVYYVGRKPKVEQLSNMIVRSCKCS
human-chicken LAP-TGFβ1 chimera #1.2 on HT1080 cells, sequence (P01137 other isoform, or with tags, fused parts or gaps mutant): as the sequence (P01137 30-390 limits assumed) above, with A31T, S32A, S35P, Q36A, G37S, V39T, G42R, E46D, A47D, L49R counted along it
human-chicken LAP-TGFβ1 chimera #6 on HT1080 cells, sequence (P01137 other isoform, or with tags, fused parts or gaps mutant): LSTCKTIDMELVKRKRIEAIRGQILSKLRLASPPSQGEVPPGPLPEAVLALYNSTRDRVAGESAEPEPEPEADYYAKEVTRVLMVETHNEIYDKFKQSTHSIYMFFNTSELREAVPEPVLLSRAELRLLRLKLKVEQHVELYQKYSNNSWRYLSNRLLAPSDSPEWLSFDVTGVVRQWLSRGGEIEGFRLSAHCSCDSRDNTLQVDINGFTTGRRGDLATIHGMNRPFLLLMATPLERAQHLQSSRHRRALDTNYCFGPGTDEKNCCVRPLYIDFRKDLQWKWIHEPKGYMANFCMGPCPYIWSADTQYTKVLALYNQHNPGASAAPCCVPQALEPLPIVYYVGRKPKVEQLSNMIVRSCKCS
T5 sequence (P01137 other isoform, or with tags, fused parts or gaps mutant): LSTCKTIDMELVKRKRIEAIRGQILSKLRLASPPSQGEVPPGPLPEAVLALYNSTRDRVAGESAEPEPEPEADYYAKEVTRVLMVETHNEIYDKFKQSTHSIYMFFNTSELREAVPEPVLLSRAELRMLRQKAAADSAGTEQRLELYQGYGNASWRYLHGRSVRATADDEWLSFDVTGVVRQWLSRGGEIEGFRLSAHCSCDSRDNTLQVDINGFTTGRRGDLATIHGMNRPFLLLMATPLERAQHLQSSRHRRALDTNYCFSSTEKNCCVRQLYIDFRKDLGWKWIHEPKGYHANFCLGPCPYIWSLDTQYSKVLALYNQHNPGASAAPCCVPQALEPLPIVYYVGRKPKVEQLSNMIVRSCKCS
human-chicken LAP-TGFβ1 chimera #3 on HT1080 cells, sequence (P01137 other isoform, or with tags, fused parts or gaps mutant): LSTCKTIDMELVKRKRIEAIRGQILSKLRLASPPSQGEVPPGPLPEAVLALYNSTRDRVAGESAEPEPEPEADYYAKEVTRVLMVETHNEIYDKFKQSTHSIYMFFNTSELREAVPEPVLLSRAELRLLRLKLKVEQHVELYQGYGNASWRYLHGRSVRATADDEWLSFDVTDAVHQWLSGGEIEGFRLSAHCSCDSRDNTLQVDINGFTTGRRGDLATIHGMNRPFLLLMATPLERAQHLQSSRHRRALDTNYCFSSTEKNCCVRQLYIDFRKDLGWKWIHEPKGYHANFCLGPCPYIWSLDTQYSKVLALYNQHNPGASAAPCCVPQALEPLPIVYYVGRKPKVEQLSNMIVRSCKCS
T4 sequence (P01137 other isoform, or with tags, fused parts or gaps mutant): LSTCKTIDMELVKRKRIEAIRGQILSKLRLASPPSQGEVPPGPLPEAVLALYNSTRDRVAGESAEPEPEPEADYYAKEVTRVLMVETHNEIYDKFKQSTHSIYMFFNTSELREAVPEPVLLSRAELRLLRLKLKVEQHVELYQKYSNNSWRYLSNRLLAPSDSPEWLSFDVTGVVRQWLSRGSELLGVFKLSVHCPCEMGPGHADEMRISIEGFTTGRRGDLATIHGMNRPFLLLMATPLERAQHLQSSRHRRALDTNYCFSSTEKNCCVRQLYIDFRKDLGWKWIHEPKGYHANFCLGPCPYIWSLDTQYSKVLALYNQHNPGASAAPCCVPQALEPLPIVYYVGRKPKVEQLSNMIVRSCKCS
T3 sequence (P01137 30-390): as the sequence (P01137 30-390 limits assumed) above
human-chicken LAP-TGFβ1 chimera #1.3 on HT1080 cells, sequence (P01137 other isoform, or with tags, fused parts or gaps mutant): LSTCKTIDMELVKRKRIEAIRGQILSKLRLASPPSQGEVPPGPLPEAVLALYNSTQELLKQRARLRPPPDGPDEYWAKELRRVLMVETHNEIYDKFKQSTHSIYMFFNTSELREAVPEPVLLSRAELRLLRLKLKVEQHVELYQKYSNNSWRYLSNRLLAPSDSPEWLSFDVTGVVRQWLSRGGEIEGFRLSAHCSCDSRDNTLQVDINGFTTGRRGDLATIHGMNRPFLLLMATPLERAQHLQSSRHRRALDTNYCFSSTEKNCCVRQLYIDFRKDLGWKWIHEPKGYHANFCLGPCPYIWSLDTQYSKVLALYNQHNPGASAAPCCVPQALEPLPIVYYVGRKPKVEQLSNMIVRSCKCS
human-chicken LAP-TGFβ1 chimera #5 on HT1080 cells (human/chicken chimera), sequence (chain, as listed by the source mutant limits assumed): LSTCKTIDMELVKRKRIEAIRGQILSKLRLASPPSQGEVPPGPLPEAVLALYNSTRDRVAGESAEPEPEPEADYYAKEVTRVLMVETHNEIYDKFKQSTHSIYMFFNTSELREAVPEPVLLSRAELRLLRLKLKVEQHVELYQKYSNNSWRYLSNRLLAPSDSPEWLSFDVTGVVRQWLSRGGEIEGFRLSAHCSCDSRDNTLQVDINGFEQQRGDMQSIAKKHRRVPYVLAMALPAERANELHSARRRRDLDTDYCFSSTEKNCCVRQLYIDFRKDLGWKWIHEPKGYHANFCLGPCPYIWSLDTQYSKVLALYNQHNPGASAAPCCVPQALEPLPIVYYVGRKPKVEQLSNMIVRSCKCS

B1: 28G11_(hyb) (antibody, mouse IgG2b, kappa, V domains shown)
VH: EVKLVESGGGLVQPGGSLSLSCAASGFTFTDYYMSWVRQPPGKALEWLGFIRNKPNGYTTEYSASVKGRFTISRDNSQSILYLQMNVLRAEDSATYYCARYTGGGYFDYWGQGTTLTVSS
VL: DIQMTQTTSSLSASLGDRLTISCRASQDISNYLNWYQQKPDGTVKLLIYYTSRLHSGVPSRFSGSGSGTDYSLTISNLEQADIATYFCQQGDTLPWTFGGGTKLEIKR
notes: parental murine antibody; also called murine hybridoma 28G11; biotin-28G11
- EC50 (read off the curve) (LAP-TGFβ1 on U937 cells [1]): ~30 µg/mL
- % GFP+/APC+ cells [2]: 83%
- % GFP+/APC+ cells [3]: 84.1%
- % GFP+/APC+ cells [4]: 0.3%
- % GFP+/APC+ cells [5]: 84.9%
- % GFP+/APC+ cells [6]: 41.7%
- % GFP+/APC+ cells [7]: 98.3%
- % GFP+/APC+ cells [8]: 44.4%
- % GFP+/APC+ cells [9]: 76.2%
- % GFP+/APC+ cells [10]: 94.7%
- % GFP+/APC+ cells [11]: 0.5%
- % GFP+/APC+ cells [12]: 3.5%
- % GFP+/APC+ cells [13]: 32.2%
- % of cells in Q1 (antibody axis positive, GARP negative) (LAP-TGFβ1 on U937 cells [14]): 6.56%
- % of cells in Q2 (antibody axis positive, GARP positive) (LAP-TGFβ1 on U937 cells [14]): 0.16%
- binding result [15]: no binding
- binding result [16]: no binding
- binding result [17]: no binding
